Experimental data: patent US20160228506A1, “Compositions and Formulations for Prevention and Reduction of Tumorigenesis, Cancer Cell Proliferation and Invasion, and Methods of Production and Use Thereof in Cancer Treatment” (PRONUTRIA, INC., priority 2013, published 2016)

Legend:
pH solubility = format: physicochemical; settings: for pH Range where Protein is >80% detected as Soluble and A650 <1 OD: Low: lower pH; for pH Range where Protein is >80% detected as Soluble and A650 <1 OD: High: upper pH
Procedure: pH Solubility. […] Protein was either lyophilized and then resuspended in buffer cocktail mixtures, or concentrated and then spiked into buffer cocktail mixtures at a final protein concentration of 5 to 30 mg/ml. As a control, protein was also dissolved in a solution of 8 M urea. Protein solutions were shaken for 10 min at room temperature. Turbidity of proteins was determined by measuring the absorbance of protein solutions at 650 nm. The protein solution was then centrifuged for 10 min at 1100×g to pellet undissolved or precipitated protein. The soluble protein fraction (supernatant) was sampled and protein concentration was measured by one or more of the following methods: Coomassie Plus Protein Assay (Pierce), Chip electrophoresis, gel electrophoresis, and/or absorbance at 280 nm. The pH range over which select proteins remained greater than 80% soluble as determined by Bradford and the A650 value are listed in Table E31C.

[1] = Thermostability, temperature of aggregation (ProteoStat Thermal Shift); format: physicochemical; parameters: key to Tagg: temperature in °C; settings: for Tagg (pH 7.1): Table E31D, heated 25° C. to 95° C.
Procedure: The thermostability of proteins in a buffer cocktail of Citric Acid and Dibasic Sodium Phosphate over a pH range of 2.8 to 7.1 (preparation described above in Table E31B) was determined using the ProteoStat® Thermal Shift Stability Kit (Enzo Life Sciences) according to the manufacturer's standard protocol. Briefly, protein solutions (˜10 mg/ml) containing 1× ProteoStat TS Detection Reagent were heated from 25° C. to 95° C. at a rate of 0.5° C. per 30 sec using a real-time PCR (rtPCR) thermocycler (BioRad) equipped with a plate reader (SynergyMx, Biotek) while monitoring the fluorescence with a Texas Red filter.

[2] = Intact half-life during simulated gastric fluid (SGF) digestion; settings: for SGF Half-life (t½): SGF pH 1.5, pepsin:polypeptide 1:20 w/w, 37° C., intact protein; for Half-life: purified proteins, chip electrophoresis
Procedure: In this experiment the nutritive polypeptide was exposed to a series of proteases that are active in the stomach (pepsin) and intestine (trypsin and chymotrypsin), and the presence of intact protein was measured over time. Specifically, the nutritive polypeptide was first treated at a concentration of 2 g/L with simulated gastric fluid (SGF) (0.03 M NaCl, titrated with HCl to pH 1.5 with a final pepsin:polypeptide ratio of 1:20 w/w) at 37° C. Time points were sampled from the reaction and quenched by addition of 0.2 M Na2CO3. […] Time points were sampled from the reaction and quenched by addition of Trypsin/Chymotrypsin Inhibitor (Sigma) solution until 240 min.
Time point samples were analyzed for intact protein by chip electrophoresis, polyacrylamide gel electrophoresis, or western blot. For chip electrophoresis (Labchip GX II), samples were analyzed using a HT Low MW Protein Express LabChip® Kit (following the manufacturer's protocol). A protein ladder was loaded every 12 samples for molecular weight determination (kDa) and quantification. For polyacrylamide gel electrophoresis, samples (1 μg) were separated on a NuPAGE® Novex® Bis-Tris Precast gel (Life Technologies) according to the manufacturer's protocol. The gel was stained using SimplyBlue™ SafeStain (Invitrogen) and imaged using a Chemidoc XRS+ (BioRad) or transferred onto nitrocellulose membranes using the iBlot® Dry Blotting System (Life Technologies) and iBlot® Western Detection Kit (Life Technologies) according to the manufacturer's protocol. Proteins were detected by blotting with Anti-His [C-term]-HRP antibody diluted 3:5000 in Blok™-PO Blocking Buffer using the SNAP I.d.® Protein Detection System (Millipore) according to the manufacturer's protocol. Blots were treated with Luminata Classico Western HRP Substrate (Millipore) according to the manufacturer's protocol and imaged using chemiluminescent detection on the Molecular Imager® Gel Doc™ XR+ System (Bio-Rad). Quantification of intact protein was determined by densitometry using ImageLab (BioRad). For all analysis methods the relative concentration of the polypeptide at each time point (if detected) was plotted overtime and fit to an exponential curve to calculate the intact half-life.
Specifically, the t=0 (enzyme-free control) and t=2 min samples from the SGF digest were analyzed for intact protein as described by chip electrophoresis, SDS-PAGE, western blot, and/or LC-MS/MS. Relative quantities of polypeptides at each time point were determined and the percentage of intact protein remaining at t=2 was determined. Intact half-life values determined using this method are reported as greater or less than 2 min to indicate more or less than 50% of the protein remained intact at t=2 min, respectively.

[3] = SGF digest of 168 nutritive polypeptide library, intact protein by LC-MS/MS; format: in vitro ADME; settings: for % Intact Protein at 10 min: 168 nutritive polypeptide library SGF digest, LC-MS/MS spectral counts; for % Remaining at 10 min: 168 nutritive polypeptide library, LC-MS/MS
Outline: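 A 168-protein IMAC-purified recombinant library was digested in simulated gastric fluid and the 0 and 10 min samples were profiled by SDS-PAGE fractionation, in-gel trypsin digestion and nanoLC-MS/MS. Percent intact protein at 10 min is the ratio of spectral counts (t10/t0), summed over the peak fraction and two flanking fractions. Filters were 1% FDR and at least two unique peptides.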

Row | Molecule | pH Range where Protein is >80% detected as Soluble and A650 <1 OD: Low (pH solubility) | pH Range where Protein is >80% detected as Soluble and A650 <1 OD: High (pH solubility) | Tagg ([1]; pH 2.8) | Tagg ([1]; pH 3.7) | Tagg ([1]; pH 3.9) | Tagg ([1]; pH 4.3) | Tagg ([1]; pH 4.6) | Tagg ([1]; pH 5.0) | Tagg ([1]; pH 5.6) | Tagg ([1]; pH 6.0) | Tagg ([1]; pH 6.5) | Tagg ([1]; pH 7.1) | SGF Half-life (t½) [2] [s] | Tagg (pH 7.1) [1] | pH Range where Protein is >80% detected as Soluble and A650 <1 OD: Other (pH solubility) | % Intact Protein at 10 min [3] [%] | % Remaining at 10 min [3] [%] | Half-life [2] [s]
1 | SEQID-00100: nutritive polypeptide (protein, listed as Lactobacillus acidophilus) MSEEEIFNKIKDLIADNFEVDKDSITENTNFMNDLDADSIDLVEFILQLEDEFGAEIPDDEAEKIKTVGDAVSYIKSHQG | 4.3 | 7.1 | 95 | 95 | 95 | 83^ | 84^ | 95 | 95 | 95 | 95 | >95 | 120 |  |  |  |  | 
2 | SEQID-00241: nutritive polypeptide (protein, listed as Bos taurus) SELKKDIDDLELTLAKVEKEKHATENKVKNLTEEMAGLDETIAKLTKEKKALQEAHQQTLDDLQAEEDKVNTLTKAKTKLEQQVDDLEGSLEQEKKLRMDLERAKRKLEGDLKLA | 4.3 | 9.1 |  |  |  |  |  |  |  |  |  |  | 18 | >95 |  |  |  | 
3 | SEQID-00510: nutritive polypeptide naturally produced in Turkey, recombinantly expressed in E. coli (protein, Meleagris gallopavo, nutritive polypeptide naturally produced in Turkey, recombinantly expressed in E. coli) MVPIAEKMAEKQEEPSNTQNGEPDNAEEGEGKKKKKVKREDLPPFEIVTGERLPAIFFKFQFRNVEYSSGRNKTFLCYVVETQGKESTTSRGYLEDEHAASHAEIAFFNTILPKCESSLRYNITWYVSSSPCVTCADRISETLRKNKNLRLTIMVGRLFMWEEPEMQAALKKMKSAGCKLRIMKPQDFEYVWQNFVEQEEGEEAKAFVPWEDIQENFQYYEEKLAEILQ | 6.5 | 7.1 |  |  |  |  |  |  |  |  |  |  | 18 | 57.5 | 2.8 | 13.4 | 13.4 | 18
4 | SEQID-00622: protein of the 168 nutritive polypeptide library (protein, listed as Oryza sativa, source: /note="subsp. japonica", protein of the 168 nutritive polypeptide library) MASEGAVSPAFAYTVVYVKDVAKSAAFYSAAFGYTVRRLDQSHKWAELESGTTTIAFTPLHQRETDALTGAVQLPDSAGERGPVEICFDYADVDAAYRRAVDSGAVPVSPPEQKSWGQKVGYVRDIDGIIVRMGSHVRA | 2.8 | 7.1 | 58.5 | 42 | 42 | 43.5 | 43.5 | 42.5 | 45.5 | 46 | 47 | 95 | 396 |  |  | 43.6 | 43.6 | 396
5 | SEQID-00502: protein of the 168 nutritive polypeptide library (protein, Glycine max, protein of the 168 nutritive polypeptide library) MASQSNTKSVHDFTVKDARGNNVNLADYKGKVLLIVNVASQCGLTNSNYTELNQLYEKYKGKGLEILAFPCNQFGAQEPGTNEEIVEFACTRFKAEFPIFDKVDVNGDNAAPLYKFLKSSKGGLFGDSIKWNFSKFLVDKDGNVVDRYAPTTSPLSIEKDIKKLLDA | 7.1 |  | 95 | 95 |  | 95^ | 95^ | 77 | 77 | 76.5 | 78.5 | 95 | 36 |  | 2.8 | 9.7 | 9.7 | 36
6 | SEQID-00511: protein of the 168 nutritive polypeptide library (protein, Arthrospira platensis C1, protein of the 168 nutritive polypeptide library) MVLFGFGKKKSLPKPEEALPGRDRVMSVPDRHYINGNPLKPPFPEGMEQAVFGLGCFWGAERKFWQQQGVFSTAVGYAGGYTKNPTYEEVCSGMTGHTEVVLVVFDPKVISYTDLLKLFWESHNPTQGMRQGNDTGTQYRSAIYTYSDEQQRLALASRDRYQQALSAASYGEITTEIAPAQEFYYAEAYHQQYLGKNPNGYCGLGGTGVGCPAMTETSV | 5.6 | 7.1 |  |  |  |  |  |  |  | 39.5 | 45.5 | 42 | 18 |  |  | 4.3 | 4.3 | 18
7 | SEQID-00226: nutritive polypeptide (protein, listed as Bos taurus) QLQALQAQLTDTKKKVDDDLGTIENLEEAKKKLLKDVEVLSQRLEEKALAYDKLEKTKTRLQQELDDLLVDLDHQRQIVSNLEKKQKKFDQLLAEEKNIS | 2.6 | 9.1 |  |  |  |  |  |  |  |  |  |  | 42 | >95 |  |  |  | 
8 | SEQID-00265: nutritive polypeptide (protein, listed as Bos taurus) SEGDRLRVELAEKANKLQNELDNVSTLLEEAEKKGIKFAKDAAGLESQLQDTQELLQEETRQKLNLSSRIRQLEEERSSLQEQQEEEEEARRSLEKQLQALQAQLTDTKKKVDDDLGTIENLEEAKKKLLKDVEVLSQRLEEKALAYDKLEKTKTRLQQELDDLLVDLDHQRQIVSNLEKKQKKFDQLLAEEKNISARYAEERDRAEAEAREKETKALSLARALEEALEAREEAERQNKQLRADMEDLMSSKDDVGKNVHELEKSKRALE | 5.1 | 9.1 |  |  |  |  |  |  |  |  |  |  | 1740 | >95 | 3 |  |  | 
9 | SEQID-00269: nutritive polypeptide (protein) DLKKKLDDDLGTLENLEELKKKLLKDLELLSQRLEELALAYDKLEKTKTRLQQELDDLLLDLDHQ | 7.2 | 9.1 |  |  |  |  |  |  |  |  |  |  | 2460 | >95 |  |  |  | 
